Target: T1, C-RANKL protein (RANKL fragment with N-terminal cysteine-containing amino acid linker and hexa-histidine tag, … (mouse, UniProt O35235 137-316))
T1 construct: Coated on ELISA plates at 10 ug/ml
T1 sequence: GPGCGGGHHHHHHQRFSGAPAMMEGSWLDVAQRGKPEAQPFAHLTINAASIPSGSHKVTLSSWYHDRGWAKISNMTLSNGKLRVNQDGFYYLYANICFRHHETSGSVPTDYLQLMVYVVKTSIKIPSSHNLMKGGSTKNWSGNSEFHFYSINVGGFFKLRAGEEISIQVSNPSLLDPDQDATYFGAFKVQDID
Assay: ELISA, plates coated with 10 ug/ml C-RANKL, serial dilutions of RANK-Fc, anti-Fc-HRP detection

B1: purified RANK-Fc fusion protein (Fc fusion)
chain: VTPPCTQERHYEHLGRCCSRCEPGKYLSSKCTPTSDSVCLPCGPDEYLDTWNEEDKCLLHKVCDAGKALVAVDPGNHTAPRRCACTAGYHWNSDCECCRRNTECAPGFGAQHPLQLNKDTVCTPCLLGFFSDVFSSTDKCKPWTNCTLLGKLEAHQGTTESDVVCSSSMTLRRPPKEAQAYLPS
With B1 the EC50 was 1 to 3 nM.

Reference: patent US7128911
